Experimental data reported in PMC5993284, “Peptide inhibitors of the anaphase promoting-complex that cause sensitivity to microtubule poison” (PLoS ONE, 2018).
“Also recorded” adds a separate entry of the source. Ends that are not written are not given here. * marks the point of attachment. Biotin = O=C1N[C@H]2[C@H](CS[C@H]2CCCCC(=O)*)N1

B1: PQ65: 65 amino acid residue peptide called PQ65 (Cdc20 169–232) (peptide, UniProt P26309 169-232, looked up, fragment)
chain: PPNASPISHLRAQTKIVFKQNVAEACGLDMNKRILQYMPEPPKCSSLRQKSYIMKKRTHYSYQQ

Columns and labels:
APC/C^Cdh1 = APC/C^Cdh1 enzyme assay (ubiquitination of 35S-Pds1); format: biochemical, Saccharomyces cerevisiae; details: 220 μM peptide; 35S-Pds1 substrate; time course 0-60 minutes; vs buffer; n = 3
Experimental: Full-length, radio-labeled protein purifications were preformed as previously described. ^35S-Pds1 was prepared in a 500 μL IVT/T (In Vitro Transcription/Translation) reaction (Promega, USA), which contained 400 μL rabbit reticulocyte lysate, 20 μL of L-^35S-methionine (PerkinElmer, USA), 10 μg of plasmid DNA, and the remaining volume as nuclease-free ddH2O as recommended by the manufacturer. The reaction mixture was incubated for 2 hours at room temperature and gently mixed every 30 minutes. The reaction was added to pre-equilibrated IgG Sepharose beads (GE Healthcare, USA) in Bio-spin disposable chromatography columns (Bio-Rad, USA) for binding for 2 hours at room temperature. To ensure efficient binding, the beads were re-suspended several times every 30 minutes. After binding, the beads were washed with 5 mL wash buffer, containing 200 mM 4-(2-hydroxyethyl)-1-piperazineethanesulfonic acid (HEPES) at pH 8.0, 150 mM NaCl, 10% (v/v) glycerol, and 1 mM dithiothreitol (DTT). The ^35S-Pds1 was cleaved from the beads using TEV (Tobacco Etch Virus) protease in 1x TEV buffer (Invitrogen, USA) for 2 hours at room temperature, and the mixture was re-suspended several times every 30 minutes to promote efficient cleavage. The elution was collected and concentrated by employing an Amicon Ultra filter column (Millipore, Ireland). The concentrated ^35S-Pds1 was collected in a new tube, and stored at -20 °C.
The production of Cdc20 or Cdh1 was prepared by IVT/T reactions, where 16 μL of rabbit reticulocyte lysate, 20 μM L-methionine, 0.4 μg of plasmid DNA, and a volume of nuclease-free ddH2O for a total volume of 20 μL. This freshly synthesized Cdc20 or Cdh1 protein was used directly in all APC/C assays after a 1-hour synthesis reaction at room temperature. The APC/C was purified for enzyme assays from 1 mL of TAP-tagged Cdc16 yeast extract (SCSY51) where extract was mixed with 50 μL 50:50 slurry magnetic beads (Invitrogen, Norway) for 2 hours at 4 °C. After incubation, the beads were washed with 3 mL APC/C wash buffer (200 mM of HEPES, 150 mM of NaCl and 10% (v/v) of glycerol). APC/C bound to IgG magnetic beads was used directly in the enzyme assays.
APC/C assays were performed by adding the reaction contents in following order: 4.3 μL of QAH buffer, 20 μL of rabbit reticulocyte lysate containing Cdc20 or Cdh1 with or without an additional volume of recombinant checkpoint protein(s) or inhibitor peptides, 2.4 μL ubiquitin aldehyde (Boston Biochem, USA), APC/C, 16 μL pre-charged E1/E2/ATP/ubiquitin mix, and 13.3 μL of ^35S-Pds1 with QAH buffer (20 mM HEPES at pH 8.0, 100 mM NaCl, and 1 mM MgCl2). […]

APC/C^Cdc20 = target: T1, APC/C^Cdc20 (Saccharomyces cerevisiae, UniProt P16522+P53886); test: biochemical; format: biochemical; details: for inhibition of APC/C^Cdc20 activity (in words): 220 μM peptide, time course 0-60 minutes, vs buffer only, n = 3
T1 construct: constructed within full-length Cdc20 by site-directed mutagenesis for analysis in vitro in the APC/C^Cdc20 assay; The APC/C was purified for enzyme assays from 1 mL of TAP-tagged Cdc16 yeast extract (SCSY51); made in house; host or cells: Cdc20: in vitro transcription/translation in rabbit reticulocyte lysate, used unpurified; APC/C: S. cerevisiae strain SCSY51 (Cdc16-TAP) extract, captured on IgG magnetic beads
How it was run: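 Bead-bound TAP-Cdc16 yeast APC/C was mixed with IVT-made Cdc20 or Cdh1, pre-incubated 1 h at rt with checkpoint proteins or inhibitor peptides, plus pre-charged E1/E2/ATP/ubiquitin and ^35S-Pds1 in 20 mM HEPES pH 8.0, 100 mM NaCl, 1 mM MgCl2. Time points were stopped in SDS buffer and resolved by SDS-PAGE.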

Molecule	inhibition of APC/C^Cdh1 activity (in words) (APC/C^Cdh1)	inhibition of APC/C^Cdc20 activity (in words) (APC/C^Cdc20; 35S-Pds1 substrate)	overall APC/C inhibition (in words) (APC/C^Cdc20; discussion/conclusion statement)	IC50 (APC/C^Cdc20; peptide titration dilution series, 35S-Pds1 substrate, estimated/approximate, read-out: IC50)
DQ36-mut1: DQ36-mut1 where all 5 RILQY residues were changed to alanine AAAAA (Biotin-DMNKAAAAAMPEPPKCSSLRQKSYIMKKRTHYSYQQ)	displayed a similar loss in the ability to inhibit this APC/C^Cdh1 enzyme activity relative to wild type DQ36	The RILQY residues of the yeast KILR-motif were observed to be essential for full inhibition		
B1	observed to inhibit APC/C^Cdh1; also recorded: a significant level of APC/C^Cdh1 inhibition was observed	sufficient to inhibit APC/C^Cdc20 activity; also recorded: A significant level of APC/C^Cdc20 inhibition was observed	displayed the highest level of APC/C inhibition in vitro	< 50 µM
